{"source": "patent US20260078196A1", "about": "(TJ BIOPHARMA SHANGHAI, published 2026)", "binders": {"B1": {"name": "D30 (antibody, V domains shown)", "VH": "QVQLVQSGAEVKKPGSSVKVSCKASGGTFSSYAISWVRQAPGQGLEWMGGIIPIFGTANYAQKFQGRVTITADESTSTAYMELSSLRSEDTAVYYCARANFNIYYYYYGMDVWGQGTLVTVSS", "VL": "not shown", "notes": "Anti-MUC16 mAb"}, "B2": {"name": "C25 (antibody, V domains shown)", "VH": "EVQLLESGAEVKKPGSSVKVSCKASGGTFSSYAISWVRQAPGQGLEWMGGIIPIFGTANYAQKFQGRVTITADESTSTAYMELSSLRSEDTAVYYCARDSRKYYYDSSGPALWGFDAFDIWGQGTMVTVSS", "VL": "not shown", "notes": "Anti-MUC16 mAb from a human naive Fab phage library; also called MUC16-C25"}, "B3": {"name": "D46 (antibody, V domains shown)", "VH": "QVQLVQSGAEVKKPGSSVKVSCKASGGTFSSYAISWVRQAPGQGLEWMGRIIPIFGIANYAQKFQGRVTITADKSTSTAYMELSSLRSEDTAVYYCAITGDYDILTGSYYYGMDVWGQGTTVTVSS", "VL": "NIQLTQSPSSLSASVGDRVTITCRASQGIRNDLGWYQQKPGKAPKLLIYAASSLQSGVPSRFSGSGSGTDFTLTISSLQPEDFATYYCLQDYNYPFTFGPGTKVDIK", "notes": "Anti-MUC16 mAb"}, "B4": {"name": "4B-3C5 (bispecific antibody, human IgG1, kappa)", "heavy": "not shown", "light": "DIKMTQSPSSMYASLGERVSITCRASQDIYSYLSWFQQKPGKSPKTLIYRANRLVDGVPSRFSGSGSGQDYSLTISSLEYEDMGIYYCLQYDEFPYTFGGGTKLEIKRTVAAPSVFIFPPSDEQLKSGTASVVCLLNNFYPREAKVQWKVDNALQSGNSQESVTEQDSKDSTYSLSSTLTLSKADYEKHKVYACEVTHQGLSSPVTKSFNRGEC", "notes": "Chimeric ROR1 x 4-1BB BsAb; also called 3C5 IgG x 4-1BB VHH"}, "B5": {"name": "4-1BB VHH (VHH)", "VHH": "QVQLQESGGGLVQPGGSLRLSCAASGYTYSSNCMGWFRQAPGKGLEGVAVICTGGGSPSYADSVKGRFTISRDNAKNTLYLQMNSLRAEDTAVYYCAADLLRAGTPLSSYEFNYWGQGTLVTVSS"}, "B6": {"name": "4B-10C9 (second entry of Table 6A, with 9C9 VH and 9C9 VL) (bispecific antibody, human IgG1, kappa)", "heavy": "not shown", "light": "DIVLTQSPAITAASLGQKVTITCSASSSVTYMHWYQQKSGTSPKLWIYDISKLASGVPARFSGSGPGTSYSLTISTMEAEDAAIYYCQQWNYPLMTFGGGTKLEIKRTVAAPSVFIFPPSDEQLKSGTASVVCLLNNFYPREAKVQWKVDNALQSGNSQESVTEQDSKDSTYSLSSTLTLSKADYEKHKVYACEVTHQGLSSPVTKSFNRGEC", "notes": "Label 4B-10C9 is printed twice; this entry holds the 9C9 variable domains and is probably meant as 4B-9C9; also called 10C9 IgG x 4-1BB VHH (label as printed)"}, "B7": {"name": "4B-8F2 (bispecific antibody, human IgG1, kappa)", "heavy": "not shown", "light": "DVVMTQTPLTLSVTIGQPASISCKSSQSLLHSNGKTYLNWLLQRPGQSPNLLIYLVSKLESGVPDRFSGSGSGTDFTLKISRVEAEDLGVYYCLQATYFPYTFGSGTKLEIKRTVAAPSVFIFPPSDEQLKSGTASVVCLLNNFYPREAKVQWKVDNALQSGNSQESVTEQDSKDSTYSLSSTLTLSKADYEKHKVYACEVTHQGLSSPVTKSFNRGEC", "notes": "Chimeric ROR1 x 4-1BB BsAb; also called 8F2 IgG x 4-1BB VHH"}, "B8": {"name": "4B-10C9 (bispecific antibody, human IgG1, kappa)", "heavy": "not shown", "light": "B7 light with T14A, S32I, N50K, Y98H", "notes": "also called 10C9 IgG x 4-1BB VHH"}, "B9": {"name": "C73 (antibody, V domains shown)", "VH": "QVQLMQSGAEVKKPGSSVKVSCKASGGTFSSYAISWVRQAPGQGLEWMGGIIPIFGTANYAQKFQGRVTITADESTSTAYMELSSLRSEDTAVYYCAREPPLSNYGDYATEQYYYGMDVWGQGTLVTVSS", "VL": "not shown", "notes": "Anti-MUC16 mAb"}, "B10": {"name": "D20 (antibody, V domains shown)", "VH": "QVQLVQSGAEVKKPGSSVKVSCKASGGTFSSYAISWVRQAPGQGLEWMGGIIPIFGTANYAQKFQGRVTITADESTSTAYMELSSLRSEDTAVYYCASTPELLWFGELGGAYYFDYWGQGTLVTVSS", "VL": "NIQLTQSPSTLSASVGDRVTITCRASESISSWLAWYQQKPGEAPKLLIYKASTLENGVPSRFSGSGSETEFTLTISSLQPDDFATYYCQQYRSHWSSTFGPGTKVDIK", "notes": "Anti-MUC16 mAb"}, "B11": {"name": "D1 (antibody, V domains shown)", "VH": "QVQLVQSGAEVKKPGSSVKVSCKASGGTFSSYAISWVRQAPGQGLEWMGGIIPIFGTANYAQKFQGRVTITADESTSTAYMELSSLRSEDTAVYYCARAPMVRGVPPTPYYYYYGMDVWGQGTTVTVSS", "VL": "EIVLTQSPATLSLSPGERATLSCRASQSVSNYLAWYQQKPGQAPRLLIYDASNRATGIPARFSGSGSGTDFTLTISSLEPEDFAVYYCQQRSNWPSFGQGTKVEIK", "notes": "Anti-MUC16 mAb"}}, "note": "Changes are numbered by the printed parent chain."}
{"target": "T1, human MUC16 on cells (human, UniProt Q8WXI7 1-14507)", "T1 construct": "whole, on cells; also called huMUC16; MUC16 on OVCAR3 and SNU216 cells", "experiment": "flow cytometry (MFI GeoMean) on SNU216 cells, nM is the unit of the x axis Log10[Ab] (nM)", "units": {"EC50": "nM"}}
{"binder": "B1", "EC50": 0.125}
{"binder": "B2", "EC50": 0.0978}
{"target": "T1, human MUC16 on cells", "experiment": "flow cytometry (GMFI) on OVCAR3 cells, nM is the unit of the x axis Log10[Ab] (nM)", "units": {"EC50": "nM"}}
{"binder": "B1", "EC50": 0.389}
{"binder": "B2", "EC50": 0.179}
{"binder": "B3", "EC50": 0.347}
{"target": "T2, 4-1BB on cells (human, UniProt Q07011 24-255)", "T2 construct": "Species is stated as human for section 2.2 as a whole, not for each cell line; also called HEK293 cells expressing 4-1BB; 4-1BB overexpressed HEK293 cell", "T2 sequence (Q07011 24-255)": "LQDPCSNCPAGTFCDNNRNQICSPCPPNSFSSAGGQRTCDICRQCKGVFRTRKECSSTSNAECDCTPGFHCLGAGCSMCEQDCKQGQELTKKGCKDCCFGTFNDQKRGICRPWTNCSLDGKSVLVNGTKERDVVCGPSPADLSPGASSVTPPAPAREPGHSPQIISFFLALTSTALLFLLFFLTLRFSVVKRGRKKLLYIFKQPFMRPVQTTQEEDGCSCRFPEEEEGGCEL", "experiment": "flow cytometry (gMFI) on HEK293-h4-1BB cells", "units": {"EC50 (read off the curve)": "nM"}}
{"binder": "B4", "EC50 (read off the curve)": "~0.1"}
{"binder": "B5", "EC50 (read off the curve)": "~0.2"}
{"binder": "B6", "EC50 (read off the curve)": "~0.3"}
{"binder": "B7", "EC50 (read off the curve)": "~0.2"}
{"binder": "B8", "EC50 (read off the curve)": "~0.3"}
{"target": "T3, HEK293-MUC16 (13810-14507) (human, UniProt Q8WXI7 13810-14507)", "T3 construct": "range 13810-14507; also called MUC16 overexpressed HEK293 cells", "T3 sequence": "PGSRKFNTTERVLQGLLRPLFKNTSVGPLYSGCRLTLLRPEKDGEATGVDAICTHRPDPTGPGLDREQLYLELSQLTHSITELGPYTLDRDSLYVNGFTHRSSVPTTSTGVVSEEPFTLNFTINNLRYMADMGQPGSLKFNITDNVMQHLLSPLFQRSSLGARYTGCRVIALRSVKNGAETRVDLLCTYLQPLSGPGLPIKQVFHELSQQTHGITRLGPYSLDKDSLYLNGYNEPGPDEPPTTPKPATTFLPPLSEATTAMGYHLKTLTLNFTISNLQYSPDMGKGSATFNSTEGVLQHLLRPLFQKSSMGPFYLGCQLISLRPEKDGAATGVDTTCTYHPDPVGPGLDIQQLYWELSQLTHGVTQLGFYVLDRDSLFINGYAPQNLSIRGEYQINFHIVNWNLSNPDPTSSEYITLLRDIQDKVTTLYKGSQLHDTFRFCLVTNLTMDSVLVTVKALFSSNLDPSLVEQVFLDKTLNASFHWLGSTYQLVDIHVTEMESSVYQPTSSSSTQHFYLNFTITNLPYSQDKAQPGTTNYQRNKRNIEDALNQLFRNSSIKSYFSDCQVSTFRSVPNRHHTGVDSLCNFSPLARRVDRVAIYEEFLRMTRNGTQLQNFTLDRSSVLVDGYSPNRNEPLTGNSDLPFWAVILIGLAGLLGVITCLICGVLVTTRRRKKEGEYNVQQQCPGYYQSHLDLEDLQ", "experiment": "flow cytometry (MFI GeoMean) on HEK293-MUC16 (13810-14507) cells, nM is the unit of the x axis Log10[Ab] (nM)", "units": {"EC50": "nM"}}
{"binder": "B1", "EC50": 0.277}
{"binder": "B2", "EC50": 0.156}
{"target": "T4, huMUC16, AA13789-14451", "T4 construct": "also called MUC16 Antigen (human MUC16 AA13789-14451)", "T4 chain": "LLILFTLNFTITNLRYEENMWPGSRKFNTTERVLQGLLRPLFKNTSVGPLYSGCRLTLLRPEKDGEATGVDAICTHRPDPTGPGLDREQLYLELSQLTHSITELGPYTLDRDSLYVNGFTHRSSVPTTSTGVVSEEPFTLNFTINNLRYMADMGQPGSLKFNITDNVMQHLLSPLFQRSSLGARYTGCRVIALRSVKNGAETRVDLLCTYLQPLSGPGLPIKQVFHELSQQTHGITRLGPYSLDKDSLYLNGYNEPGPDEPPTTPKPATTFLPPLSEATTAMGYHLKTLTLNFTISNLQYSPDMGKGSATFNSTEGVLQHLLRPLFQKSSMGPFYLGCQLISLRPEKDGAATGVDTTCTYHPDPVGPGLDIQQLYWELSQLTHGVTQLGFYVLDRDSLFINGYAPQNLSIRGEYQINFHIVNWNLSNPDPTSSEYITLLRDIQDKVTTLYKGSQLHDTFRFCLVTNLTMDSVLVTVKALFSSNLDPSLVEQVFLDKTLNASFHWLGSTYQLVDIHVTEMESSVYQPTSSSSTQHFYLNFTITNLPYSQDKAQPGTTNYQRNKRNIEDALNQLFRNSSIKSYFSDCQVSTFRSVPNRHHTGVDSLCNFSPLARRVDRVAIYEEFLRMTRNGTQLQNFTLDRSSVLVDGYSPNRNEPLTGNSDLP", "experiment": "binding ELISA on huMUC16 AA13789-14451"}
{"binder": "B1", "binding result": "binds"}
{"binder": "B2", "binding result": "binds"}
{"binder": "B9", "binding result": "binds"}
{"binder": "B3", "binding result": "binds"}
{"binder": "B10", "binding result": "binds"}
{"binder": "B11", "binding result": "binds"}
{"target": "T5, huMUC16, AA14198-14507", "T5 chain": "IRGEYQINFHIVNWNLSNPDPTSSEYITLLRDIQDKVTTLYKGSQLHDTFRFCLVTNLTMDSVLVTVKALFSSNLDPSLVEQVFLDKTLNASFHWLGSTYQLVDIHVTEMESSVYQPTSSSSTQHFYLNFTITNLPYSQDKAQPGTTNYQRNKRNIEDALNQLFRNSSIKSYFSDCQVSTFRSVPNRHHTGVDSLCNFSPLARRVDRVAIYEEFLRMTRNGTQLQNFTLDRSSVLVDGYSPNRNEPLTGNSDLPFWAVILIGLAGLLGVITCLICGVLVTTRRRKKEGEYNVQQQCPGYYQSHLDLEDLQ", "experiment": "binding ELISA on huMUC16 AA14198-14507"}
{"binder": "B1", "binding result": "no binding (tested: 100 nM)"}
{"binder": "B2", "binding result": "no binding (tested: 100 nM)"}
{"binder": "B9", "binding result": "no binding (tested: 100 nM)"}
{"binder": "B3", "binding result": "no binding (tested: 100 nM)"}
{"binder": "B10", "binding result": "no binding (tested: 100 nM)"}
{"binder": "B11", "binding result": "no binding (tested: 100 nM)"}
{"target": "T1, human MUC16 on cells", "experiment": "flow cytometry (MFI GeoMean) on OVCAR3 cells, nM is the unit of the x axis Log10[Ab] (nM)", "units": {"EC50": "nM"}}
{"binder": "B1", "EC50": 0.38}
{"binder": "B2", "EC50": 0.242}
{"target": "T6, human MUC16 (human)", "T6 construct": "also called MUC16 antigen of the kinetic assay", "experiment": "binding kinetics, sensorgrams in RU in FIG. 14B, model printed: Kinetics 1:1; form of the MUC16 antigen not given", "units": {"Kd": "nM", "koff": "s⁻¹", "kon": "M⁻¹ s⁻¹"}}
{"binder": "B2", "Kd": 26.9, "koff": 0.00697, "kon": 260000}
{"target": "T1, human MUC16 on cells", "experiment": "flow cytometry (GMFI) on OVCAR3 cells, nM is the unit of the x axis Log10[Ab] (nM); curve without upper plateau", "units": {"EC50": "nM"}}
{"binder": "B9", "EC50": 50.1}
{"binder": "B10", "EC50": 14.1}
{"binder": "B11", "EC50": 27.6}
{"target": "T7, ROR1 on cells (UniProt Q01973 30-937)", "T7 construct": "whole, on cells; also called ROR1 endogenous expressed tumor cell A549; ROR1-positive tumor cell lines", "experiment": "flow cytometry (gMFI) on A549 cells", "units": {"EC50 (read off the curve)": "nM"}}
{"binder": "B4", "EC50 (read off the curve)": "~0.08"}
{"binder": "B6", "EC50 (read off the curve)": "~0.2"}
{"binder": "B7", "EC50 (read off the curve)": "~0.03"}
{"binder": "B8", "EC50 (read off the curve)": "~0.3"}
